In paper PMC4066763, “Programmable DNA-binding proteins from Burkholderia provide a fresh perspective on the TALE-like repeat domain” one finds binding result and Kd data, which are given here for seven molecules.

The target of data set [1] is T1, Bat3 (Burkholderia rhizoxinica HKI 0454, UniProt E5AW43 1-311).
T1 sequence: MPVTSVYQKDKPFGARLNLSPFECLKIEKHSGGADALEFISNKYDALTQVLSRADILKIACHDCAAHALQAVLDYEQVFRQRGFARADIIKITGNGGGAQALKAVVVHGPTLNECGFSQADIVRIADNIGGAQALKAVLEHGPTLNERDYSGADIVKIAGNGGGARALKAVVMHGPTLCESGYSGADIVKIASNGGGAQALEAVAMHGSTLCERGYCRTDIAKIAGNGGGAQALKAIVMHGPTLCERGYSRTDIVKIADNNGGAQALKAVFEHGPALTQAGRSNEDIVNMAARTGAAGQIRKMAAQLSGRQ
The data set can be described thus: EMSA; 100 nM protein, 10 nM DNA, poly dI.dC; EMSA: 15 mM Tris-Cl, 75 mM KCl, 2.5 mM DTT, 0.063% NP-40, 62.5 ng/ul dI.dC, 0.125 mg/ml BSA, 6.25% glycerol, 6.25 mM MgCl2, 0.125 mM EDTA, room temp, gel at 4 C; MST: 20 mM Tris pH 7.4, 150 mM NaCl, 10 mM MgCl2, 0.05% Tween, room temp, 100 nM labelled Bat1. The settings on record: protein: recombinant; tags: N-terminal His; label: 5' Cy5 forward strand.

Data set [2] has as its target T2, Bat2 (Burkholderia rhizoxinica HKI 0454, UniProt E5AW45 1-997).
T2 sequence: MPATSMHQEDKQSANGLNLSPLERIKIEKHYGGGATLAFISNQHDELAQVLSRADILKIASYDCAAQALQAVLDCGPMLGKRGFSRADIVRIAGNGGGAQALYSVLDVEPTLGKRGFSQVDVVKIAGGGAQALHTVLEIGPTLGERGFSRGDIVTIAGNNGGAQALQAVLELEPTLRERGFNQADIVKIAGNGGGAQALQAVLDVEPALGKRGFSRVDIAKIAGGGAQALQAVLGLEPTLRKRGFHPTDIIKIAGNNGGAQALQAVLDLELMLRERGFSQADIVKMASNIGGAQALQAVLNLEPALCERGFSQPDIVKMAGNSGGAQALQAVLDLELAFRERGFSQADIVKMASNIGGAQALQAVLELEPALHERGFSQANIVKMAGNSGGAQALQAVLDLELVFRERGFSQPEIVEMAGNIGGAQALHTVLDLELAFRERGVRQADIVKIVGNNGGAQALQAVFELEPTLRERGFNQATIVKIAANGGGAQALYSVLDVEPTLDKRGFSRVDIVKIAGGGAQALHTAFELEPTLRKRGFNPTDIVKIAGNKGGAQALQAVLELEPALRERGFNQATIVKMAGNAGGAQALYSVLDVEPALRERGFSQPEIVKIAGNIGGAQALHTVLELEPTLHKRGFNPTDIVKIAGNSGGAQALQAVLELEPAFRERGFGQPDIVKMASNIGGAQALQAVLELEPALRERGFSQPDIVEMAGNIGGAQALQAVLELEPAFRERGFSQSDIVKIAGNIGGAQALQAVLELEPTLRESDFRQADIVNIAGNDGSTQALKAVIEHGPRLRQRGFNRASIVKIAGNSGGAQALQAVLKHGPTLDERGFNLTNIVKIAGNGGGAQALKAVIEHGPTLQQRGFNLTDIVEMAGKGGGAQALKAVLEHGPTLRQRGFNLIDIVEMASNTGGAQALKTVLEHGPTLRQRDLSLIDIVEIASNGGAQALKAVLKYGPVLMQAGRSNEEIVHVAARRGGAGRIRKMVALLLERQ
Described as above. The conditions noted are these: protein: recombinant; tags: N-terminal His; label: 5' Cy5 forward strand.

The target in data set [3] is T3, Bat1 (BurrH) (Burkholderia rhizoxinica HKI 0454, UniProt E5AV36 1-771).
T3 sequence: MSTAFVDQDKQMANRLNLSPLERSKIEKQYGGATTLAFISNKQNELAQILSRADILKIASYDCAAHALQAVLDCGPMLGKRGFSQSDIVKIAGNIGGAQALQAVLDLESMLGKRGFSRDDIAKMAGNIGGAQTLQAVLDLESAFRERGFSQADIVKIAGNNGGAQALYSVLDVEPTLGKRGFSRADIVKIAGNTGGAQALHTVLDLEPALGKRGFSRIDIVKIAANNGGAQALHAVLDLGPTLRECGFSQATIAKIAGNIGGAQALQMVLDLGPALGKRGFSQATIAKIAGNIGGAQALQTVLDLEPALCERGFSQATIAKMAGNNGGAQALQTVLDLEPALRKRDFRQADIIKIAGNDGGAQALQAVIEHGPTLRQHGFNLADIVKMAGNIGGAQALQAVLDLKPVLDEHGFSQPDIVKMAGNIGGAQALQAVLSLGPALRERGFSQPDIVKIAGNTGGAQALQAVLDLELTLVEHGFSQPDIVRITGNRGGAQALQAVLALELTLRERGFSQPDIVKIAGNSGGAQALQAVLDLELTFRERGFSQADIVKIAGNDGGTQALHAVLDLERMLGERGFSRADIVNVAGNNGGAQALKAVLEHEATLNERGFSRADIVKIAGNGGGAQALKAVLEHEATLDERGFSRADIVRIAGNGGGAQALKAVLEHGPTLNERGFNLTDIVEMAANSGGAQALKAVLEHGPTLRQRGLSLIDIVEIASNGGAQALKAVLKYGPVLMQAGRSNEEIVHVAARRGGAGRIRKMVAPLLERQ
As to the kind of experiment: MST; 10 mM MgCl2; EMSA: 15 mM Tris-Cl, 75 mM KCl, 2.5 mM DTT, 0.063% NP-40, 62.5 ng/ul dI.dC, 0.125 mg/ml BSA, 6.25% glycerol, 6.25 mM MgCl2, 0.125 mM EDTA, room temp, gel at 4 C; MST: 20 mM Tris pH 7.4, 150 mM NaCl, 10 mM MgCl2, 0.05% Tween, room temp, 100 nM labelled Bat1. The settings on record: protein: recombinant; tags: N-terminal His; label: none (stated unlabelled). For orientation: In EMSA bound probe runs differently from free probe, usually more slowly.

The target in data set [4] is T3, Bat1 (BurrH). The data set can be described thus: EMSA; 100 nM protein, 10 nM DNA, poly dI.dC; EMSA: 15 mM Tris-Cl, 75 mM KCl, 2.5 mM DTT, 0.063% NP-40, 62.5 ng/ul dI.dC, 0.125 mg/ml BSA, 6.25% glycerol, 6.25 mM MgCl2, 0.125 mM EDTA, room temp, gel at 4 C; MST: 20 mM Tris pH 7.4, 150 mM NaCl, 10 mM MgCl2, 0.05% Tween, room temp, 100 nM labelled Bat1. The settings on record: protein: recombinant; tags: N-terminal His; label: 5' Cy5 forward strand.

Substitutions are numbered along the chain they refer to.

B1: BEBat1 (T0), EMSA (dsDNA)
DNA 1: TAGACTAAGAGAAGCAAAGACGTTATATGC
DNA 2: GCATATAACGTCTTTGCTTCTCTTAGTCTA
B1: the binding result in data set [1] and in data set [2] was “no binding” in each case.

B2: BEBat1 A-0, MST (dsDNA)
DNA 1: B1 DNA 1 with T6A
DNA 2: B1 DNA 2 with A25T
For B2, the binding result in data set [3] is recorded as “binds”.

B3: BEBat2, EMSA (dsDNA)
DNA 1: TAGACTTTGTTGAAAAGTTGTAAAAACATTATATGC
DNA 2: GCATATAATGTTTTTACAACTTTTCAACAAAGTCTA
Regarding B3, the results for the binding result in data set [1], in data set [4] and in data set [2] were “no binding”, “no binding” and “binds”, respectively.

B4: BEBat3, EMSA (dsDNA)
DNA 1: TAGACATAGATTATTATATTTGTAACAAGTAAATGC
DNA 2: GCATTTACTTGTTACAAATATAATAATCTATGTCTA
With B4, the binding result in data set [1], in data set [4] and in data set [2] was “no binding” in each case.

B5: BEBat1 T-0, MST (dsDNA)
DNA 1: B1 DNA 1
DNA 2: B1 DNA 2
For the molecule B5, the Kd in data set [3] was 132 nM.

B6: BEBat1 C-0, MST (dsDNA)
DNA 1: B1 DNA 1 with T6C
DNA 2: B1 DNA 2 with A25G
As to B6, the binding result in data set [3] is given as “binds”.

B7: BEBat1 G-0, MST (dsDNA)
DNA 1: B1 DNA 1 with T6G
DNA 2: B1 DNA 2 with A25C
Turning to B7, the binding result in data set [3] is recorded as “binds”.

In general, Kd refers to the equilibrium constant for the complex coming apart.
